The test deals with T1, human C1q (human, UniProt P02745 23-245; P02746 28-253; P02747 29-245).
T1 construct: also called first component of the classical complement cascade
Description: ELISA, antibody coated, C1q detected with rabbit anti-human C1q. Here is the method: In short, microtiter ELISA plates (Greiner, Germany) were coated overnight at RT with the test antibodies serially diluted from 10 μg/ml to 0.06 μg/ml in PBS. Plates were emptied and wells were blocked with 200 μl ELISA-diluent per well (0.1 M NaPO₄, 0.1 M NaCl, 0.1% gelatin and 0.05% Tween-20), at RT for 30 minutes. […] After washing the plates (3×) with PBST, wells were incubated with HRP-conjugated swine anti-rabbit IgG-Fc (DAKO, P0300, lot #069) diluted in ELISA diluent (1:2500, 100 μl/well, RT, 1 hour). Thereafter, plates were washed thrice and assays were developed with freshly prepared 1 mg/ml ABTS solution (ABTS: 2,2′-azino-bis[3-ethylbenzthiazoline-6-sulfonic acid]); 2 tablets of 5 mg in 10 ml ABTS buffer, Boehringer Mannheim, Ingelheim, Germany) at RT in the dark for 30 minutes. Absorbance was measured at 405 nm in an ELISA plate reader (Biotek Instruments Inc., Winooski, USA).
In general terms: ELISA stands for enzyme-linked immunosorbent assay.

T1 sequence (P02745 23-245, chain 1 of 3): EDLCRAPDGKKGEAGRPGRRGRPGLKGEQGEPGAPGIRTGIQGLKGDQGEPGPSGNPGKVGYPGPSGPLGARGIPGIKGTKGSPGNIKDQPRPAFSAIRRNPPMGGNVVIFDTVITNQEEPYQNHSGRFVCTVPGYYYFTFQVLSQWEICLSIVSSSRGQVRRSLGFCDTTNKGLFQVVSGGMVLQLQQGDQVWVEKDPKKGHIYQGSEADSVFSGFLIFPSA
T1 sequence (P02746 28-253, chain 2 of 3): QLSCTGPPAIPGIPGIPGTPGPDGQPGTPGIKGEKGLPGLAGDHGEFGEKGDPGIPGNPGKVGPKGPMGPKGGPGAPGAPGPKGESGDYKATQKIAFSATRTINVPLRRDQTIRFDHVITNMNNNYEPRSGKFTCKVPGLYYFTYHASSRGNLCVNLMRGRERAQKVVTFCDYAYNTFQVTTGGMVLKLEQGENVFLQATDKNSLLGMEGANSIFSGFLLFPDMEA
T1 sequence (P02747 29-245, chain 3 of 3): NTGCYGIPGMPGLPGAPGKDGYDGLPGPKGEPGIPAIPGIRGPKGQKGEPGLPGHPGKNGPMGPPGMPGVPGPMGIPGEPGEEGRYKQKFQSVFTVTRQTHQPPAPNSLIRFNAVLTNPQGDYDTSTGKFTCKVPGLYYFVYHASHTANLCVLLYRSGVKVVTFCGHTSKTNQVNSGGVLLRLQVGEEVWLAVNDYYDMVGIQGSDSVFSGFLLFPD

B1: 7D8-HG (antibody)
heavy: EVQLVESGGGLVQPDRSLRLSCAASGFTFHDYAMHWVRQAPGKGLEWVSTISWNSGTIGYADSVKGRFTISRDNAKNSLYLQMNSLRAEDTALYYCAKDIQYGNYYYGMDVWGQGTTVTVSSASTKGPSVFPLAPCSRSTSESTAALGCLVKDYFPEPVTVSWNSGALTSGVHTFPAVLQSSGLYSLSSVVTVPSSSLGTKTYTCNVDHKPSNTKVDKRVAPEFLGGPSVFLFPPKPKDTLMISRTPEVTCVVVDVSQEDPEVQFNWYVDGVEVHNAKTKPREEQFNSTYRVVSVLTVLHQDWLNGKEYKCKVSNKGLPSSIEKTISKAKGQPREPQVYTLPPSQEEMTKNQVSLTCLVKGFYPSDIAVEWESNGQPENNYKTTPPVLDSDGSFFLYSRLTVDKSRWQEGNVFSCSVMHEALHNHYTQKSLSLSLGK
light: not shown
notes: Half-molecule of one heavy and one light chain (SDS-PAGE, MS 71520 Da); also called HuMab 7D8-HG; hingeless IgG4 anti-CD20
As to B1, the binding result is on record as “no binding”.

The values above are taken from US20090226421A1 (Genmab, published 2009).
